Experiments:
[1] = molecular target: human LAG-3 protein (Lymphocyte activation gene-3) on the cell surface (human) (UniProt P18627); test: flow cytometry on CHO-LAG-3+ cells; antibody 6 ng/ml
[2] = molecular target: human LAG-3 protein (Lymphocyte activation gene-3) on the cell surface (human) (UniProt P18627); test: flow cytometry on CHO-LAG-3+ cells; antibody 20 ng/ml
[3] = molecular target: human LAG-3 protein (Lymphocyte activation gene-3) on the cell surface (human) (UniProt P18627); test: flow cytometry on CHO-LAG-3+ cells; antibody 61 ng/ml
[4] = molecular target: human LAG-3 protein (Lymphocyte activation gene-3) on the cell surface (human) (UniProt P18627); test: flow cytometry on CHO-LAG-3+ cells; antibody 192 ng/ml
[5] = molecular target: human LAG-3 protein (Lymphocyte activation gene-3) on the cell surface (human) (UniProt P18627); test: flow cytometry on CHO-LAG-3+ cells; antibody 605 ng/ml
[6] = molecular target: human LAG-3 protein (Lymphocyte activation gene-3) on the cell surface (human) (UniProt P18627); test: flow cytometry on CHO-LAG-3+ cells; antibody 1905 ng/ml
[7] = molecular target: human LAG-3 protein (Lymphocyte activation gene-3) on the cell surface (human) (UniProt P18627); test: flow cytometry on CHO-LAG-3+ cells; antibody 6000 ng/ml
[8] = molecular target: human LAG-3 protein (Lymphocyte activation gene-3) on the cell surface (human) (UniProt P18627); test: flow cytometry on CHO-LAG-3+ cells; antibody 0 ng/ml (no-antibody background)
[9] = molecular target: T1, human LAG-3 protein (Lymphocyte activation gene-3) on the cell surface (human, UniProt P18627 23-525); test: flow cytometry on CD4+ cells of SEB-stimulated PBMCs, mean of three donors
T1 construct: also called CD223; CHO LAG-3+
T1 sequence: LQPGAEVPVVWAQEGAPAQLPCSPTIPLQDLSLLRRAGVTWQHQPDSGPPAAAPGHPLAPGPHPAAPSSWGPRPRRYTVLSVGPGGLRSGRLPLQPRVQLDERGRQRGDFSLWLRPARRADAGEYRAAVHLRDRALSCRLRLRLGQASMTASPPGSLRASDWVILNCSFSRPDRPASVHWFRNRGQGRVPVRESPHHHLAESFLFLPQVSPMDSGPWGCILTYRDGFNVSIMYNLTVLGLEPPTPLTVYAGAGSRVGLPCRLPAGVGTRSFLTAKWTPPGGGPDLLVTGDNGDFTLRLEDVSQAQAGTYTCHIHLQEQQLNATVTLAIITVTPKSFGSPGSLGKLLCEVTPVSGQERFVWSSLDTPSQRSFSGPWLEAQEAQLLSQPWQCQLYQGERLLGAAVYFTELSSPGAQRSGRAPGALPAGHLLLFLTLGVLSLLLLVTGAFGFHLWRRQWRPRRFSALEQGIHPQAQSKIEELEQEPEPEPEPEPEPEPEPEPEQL
Experimental: (§1) LAG-3⁺-transfected CHO cells, or SEB-stimulated PBMCs from a healthy donor were incubated with anti-LAG-3 monoclonal antibody, or an isotype control (mIgG1) for 30 minutes in PBS, BSA 0.5%, Azide 0.1% at 4° C. […] The secondary antibody was washed away, and the CHO cells were directly analyzed by flow cytometry. The PBMCs were phenotyped using CD4-PE-Cy7 and CD8-APC-Cy7.

[10] = molecular target: T1, human LAG-3 protein (Lymphocyte …); test: flow cytometry on CD8+ cells of SEB-stimulated PBMCs, mean of three donors
Experimental: as §1

[11] = molecular target: T1, human LAG-3 protein (Lymphocyte …); test: flow cytometry on CD4+ cells of SEB-stimulated PBMCs (Donor 1), from Table 13
Experimental: as §1

[12] = molecular target: T1, human LAG-3 protein (Lymphocyte …); test: flow cytometry on CD8+ cells of SEB-stimulated PBMCs (Donor 1), from Table 13
Experimental: as §1

[13] = molecular target: T1, human LAG-3 protein (Lymphocyte …); test: flow cytometry on CD4+ cells of SEB-stimulated PBMCs, three donors; reference 17B4
Experimental: as §1

[14] = molecular target: T1, human LAG-3 protein (Lymphocyte …); test: flow cytometry on CD8+ cells of SEB-stimulated PBMCs, three donors; reference 17B4
Experimental: as §1

[15] = molecular target: T1, human LAG-3 protein (Lymphocyte …); test: flow cytometry on LAG-3-expressing CHO cells, four independent experiments; reference 17B4
Experimental: as §1

[16] = molecular target: T2, IMP321 (recombinant soluble human LAG-3Ig fusion protein) (human, UniProt P18627 23-450); test: cell-based or functional assay
T2 sequence (looked up): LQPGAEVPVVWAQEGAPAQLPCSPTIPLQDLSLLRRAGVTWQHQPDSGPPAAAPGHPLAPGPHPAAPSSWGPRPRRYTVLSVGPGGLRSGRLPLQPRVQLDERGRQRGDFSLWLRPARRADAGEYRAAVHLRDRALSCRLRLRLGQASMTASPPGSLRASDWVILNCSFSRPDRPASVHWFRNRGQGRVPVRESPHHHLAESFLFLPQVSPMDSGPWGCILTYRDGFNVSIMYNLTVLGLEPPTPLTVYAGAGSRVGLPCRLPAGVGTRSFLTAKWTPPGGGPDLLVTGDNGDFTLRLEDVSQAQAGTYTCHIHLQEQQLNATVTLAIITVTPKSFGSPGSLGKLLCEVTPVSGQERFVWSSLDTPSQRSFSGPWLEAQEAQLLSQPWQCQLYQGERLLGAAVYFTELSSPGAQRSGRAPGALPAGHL

Row | Molecule | MFI FITC [1] [MFI] | MFI FITC [2] [MFI] | MFI FITC [3] [MFI] | MFI FITC [4] [MFI] | MFI FITC [5] [MFI] | MFI FITC [6] [MFI] | MFI FITC [7] [MFI] | MFI FITC [8] [MFI] | EC50 [9] [nM] | EC50 [10] [nM] | EC50 [11] [nM] | EC50 [12] [nM] | ratio of mean EC50 against 17B4 [13] [times] | ratio of mean EC50 against 17B4 [14] [times] | ratio of mean EC50 against 17B4 [15] [times] | percentage of inhibition of CD8+ T cell proliferation; Donor #1, 34F4 1000 ng/ml neutralised with a 10-fold excess of IMP321 [16] [%] | percentage of inhibition of CD8+ T cell proliferation; Donor #2, 34F4 1000 ng/ml neutralised with a 10-fold excess of IMP321 [16] [%]
1 | human IgG4 (isotype-matched negative control) (antibody) | 37 | 49 | 69 | 59 | 46 | 77 | 71 | 35 | – | – | – | – | – | – | – | – | –
2 | mouse monoclonal anti-LAG-3 antibody 13E2 (antibody, V domains shown, Whole mouse monoclonal antibody from a hybridoma; mIgG1 was used as its isotype control) VH: QVTLKESGPGILQPSQTLSLTCSFSGFSLSTSGMGLGWIRQPSGKGLEWLTHIWWDDIKRYNPDLRSRLTISKDTSSSQIFLKIASVDTADTATYYCARIVEGSYSSSYFDVWGAGTTVTVSS VL: DIVMTQPHKFMSTSVEDRVTITCKASQDVIFDVAWYQQKPGQSPKLLIYSASSRVSGVPDRFTGSGSGTDFTFTISSVQAEDLAVYYCQQHYSTPYTFGGGTTLEIK | – | – | – | – | – | – | – | – | 0.2 | 0.4 | 0.1 | 0.3 | 3.8 | 2.5 | 2.7 | – | –
3 | mouse monoclonal anti-LAG-3 antibody 34F4 (antibody, V domains shown, Whole mouse monoclonal antibody from a hybridoma; mIgG1 was used as its isotype control) VH: QVTLKESGPGILQPSQTLSLTCSFSGFSLNTSGMGVGWIRQPSGKGLEWLTHIWWDDVKRYNPALKSRLTISKDTSSSQVFLKIASVDTADTATYYCARIEGDTYYDYYFDYWGQGVTLTVSS VL: DIVMTQSHKLMSTSVGDGLSITCKASQDVSIAVVWYQQKPGQSPKLLIYSASFRYTGVPDRFTGSGSGTDFTFTISSVQAEDLAVYYCQQHYSIPWTFGGGTKLEIK | – | – | – | – | – | – | – | – | 0.2 | 0.5 | 0.1 | – | 3.8 | 2.5 | 1.6 | 0 | 41

Reference: patent US20190153112A1 (IMMUTEP S A S, published 2019)
